Data from patent US20220017574A1 (Janssen / Centocor, published 2022).

How the values were obtained:
Experiment in all cases: sandwich ELISA: antibody coated at 1 µg/ml, purified F protein titrated (after 4 weeks at 4 °C), detection with biotinylated CR9506
[1] = target: T1, pre-fusion RSV F protein RSV172527 (respiratory syncytial virus subgroup A …, UniProt P12568 27-109; P03420 137-513)
T1 construct: Soluble F ectodomain
T1 chain 1: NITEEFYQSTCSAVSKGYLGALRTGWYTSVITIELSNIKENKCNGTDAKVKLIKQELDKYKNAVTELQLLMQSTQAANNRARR
T1 chain 2: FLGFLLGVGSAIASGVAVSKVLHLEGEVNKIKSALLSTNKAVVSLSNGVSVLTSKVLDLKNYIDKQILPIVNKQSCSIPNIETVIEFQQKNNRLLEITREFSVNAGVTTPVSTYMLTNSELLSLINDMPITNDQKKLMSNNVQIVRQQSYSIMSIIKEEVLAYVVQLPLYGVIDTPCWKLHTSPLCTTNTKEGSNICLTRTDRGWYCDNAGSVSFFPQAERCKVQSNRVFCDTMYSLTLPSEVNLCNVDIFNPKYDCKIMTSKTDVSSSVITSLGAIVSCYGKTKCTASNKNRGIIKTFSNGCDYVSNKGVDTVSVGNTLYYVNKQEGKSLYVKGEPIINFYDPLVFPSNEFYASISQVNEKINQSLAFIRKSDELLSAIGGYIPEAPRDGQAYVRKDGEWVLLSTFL

[2] = target: T2, pre-fusion RSV F protein RSV180305 (respiratory syncytial virus subgroup A …, UniProt P12568 27-109; P03420 137-513)
T2 construct: Soluble F ectodomain; also called RSV pre-F (RSV180305)

[3] = target: T3, control pre-fusion F protein RSV150042 (respiratory syncytial virus subgroup A, UniProt P03420 27-109; P03420 137-513)
T3 construct: Control protein described in WO2017/174568; also called PRPM

Measured: binding result

B1: monoclonal antibody CR9506 (antibody, human IgG1, kappa, V domains shown)
VH: EVQLVQSGAEVKKPGSSVKVSCKASGGTFSRSLITWVRQAPGQGLEWMGEISLVFGSAKNAQKFQGRVTITADESTSTAHMEMISLKHEDTAVYYCAAHQYGSGTHNNFWDESELRFDLWGQGTLVTVSS
VL: DIVMTQSPSSLSASVGDRVTIACRASQSIGTYLNWYQQKPGKAPKLLIYAASSLQSGVPSRFSGSGSGTHFTLAISSLQAEDFATYSCQQSYTIPYTFGQGTKLEIKR
notes: In the ELISA, CR9506 was coated as a capture antibody and also used biotinylated for detection; also called Mab CR9506
binds: all assays above
